Substrate in the series: Nc1ncnc2c1ncn2[C@@H]1O[C@H](COP(=O)(O)OP(=O)(O)OP(=O)(O)O)[C@@H](O)[C@H]1O
Nature of the series: Km from NMN production assay with varied ATP; phosphorylates His247. The note with it: Mg2+ phosphorylation at His247. The series is classed as biochemical, Homo sapiens.

The source of these data is PMC6642140, “Boosting NAD^+ with a small molecule that activates NAMPT” (Nature Communications, 2019).

B1: NAMPT (nicotinamide phosphoribosyltransferase) (Homo sapiens) (protein)
chain: MNPAAEAEFNILLATDSYKVTHYKQYPPNTSKVYSYFECREKKTENSKLRKVKYEETVFYGLQYILNKYLKGKVVTKEKIQEAKDVYKEHFQDDVFNEKGWNYILEKYDGHLPIEIKAVPEGFVIPRGNVLFTVENTDPECYWLTNWIETILVQSWYPITVATNSREQKKILAKYLLETSGNLDGLEYKLHDFGYRGVSSQETAGIGASAHLVNFKGTDTVAGLALIKKYYGTKDPVPGYSVPAAEHSTITAWGKDHEKDAFEHIVTQFSSVPVSVVSDSYDIYNACEKIWGEDLRHLIVSRSTQAPLIIRPDSGNPLDTVLKVLEILGKKFPVTENSKGYKLLPPYLRVIQGDGVDINTLQEIVEGMKQKMWSIENIAFGSGGGLLQKLTRDLLNCSFKCSYVVTNGLGINVFKDPVADPNKRSKKGRLSLHRTPAGNFVTLEEGKGDLEEYGQDLLHTVFKNGKVTKSYSFDEIRKNAQLNIELEAAHH
notes: recombinant, N-terminal His tag removed with thrombin
For B1, the Km (in general, the substrate concentration at which the rate is half of its maximum) came out at 1730 ± 320 µM.
